The target of assay [1] is T1, soluble H-2K^b (soluble extracellular domains; heavy chain residues 1-274 with C-terminal His-tag and β2-microglobulin residues 1-99) (mouse).
T1 chain: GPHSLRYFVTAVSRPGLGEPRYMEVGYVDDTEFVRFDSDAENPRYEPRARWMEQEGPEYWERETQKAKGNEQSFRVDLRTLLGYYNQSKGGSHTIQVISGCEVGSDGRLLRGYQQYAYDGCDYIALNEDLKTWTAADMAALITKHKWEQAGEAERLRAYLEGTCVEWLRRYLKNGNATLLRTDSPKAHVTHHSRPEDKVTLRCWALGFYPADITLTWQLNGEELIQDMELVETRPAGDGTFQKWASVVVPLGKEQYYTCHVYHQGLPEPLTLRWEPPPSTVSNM
Put plainly: inhibition assay with soluble H-2K^b, 4° C.

Assay [2] deals with T1, soluble H-2K^b (soluble extracellular …). Put plainly: inhibition assay with soluble H-2K^b, 23° C.
For assay [3] the target is unchanged. Put plainly: inhibition assay with soluble H-2K^b, 37° C.

B1: VSV8 (RGYVYQGL), Vesicular stomatitis virus NP52-59 (peptide)
peptide: RGYVYQGL
modifications: not checked
B1: the Kd in assay [1] is 34 nM; in assay [2] it was 27 nM; in assay [3] it was 163 nM.

As a reminder, the Kd is the free concentration of one partner at which half of the binding sites on the other are occupied at equilibrium, for simple one-to-one binding. Read a low Kd as tighter binding.

The record behind these values is patent publication US20090317414A1, “CANCER VACCINE COMPRISING A MUCIN 1 (MUC1) T CELL EPITOPE-DERIVED PEPTIDE” (4G VACCINES PTY LTD, priority 2006, published 2009).
